Measured values from paper PMC11578589.

Key:
[1] = tested on: IGF2BP2 RRM (IGF2BP2RRM) (Homo sapiens); test: MST; settings: MST: 50 mM phosphate pH 7.0, 150 mM NaCl, 0.05% Tween 20, room temperature, 20 min incubation, 250 nM labeled RNA
[2] = tested on: IGF2BP2 KH34 (IGF2BP2KH34) (Homo sapiens); test: MST; settings: MST: 50 mM phosphate pH 7.0, 150 mM NaCl, 0.05% Tween 20, room temperature, 20 min incubation, 250 nM labeled RNA

Substance	Kd [1]	Kd [2]
ZIKV 3' NTR	1600 nM	418 nM
ZIKV 5' NTR	–	203 nM
